Experimental findings from US20110266675A1 are described below.

This assay concerns the target microtubules assembled from fluorescein-modified bovine brain tubulin (α/β-tubulin) (bovine). The experiment in a line: cell-based or functional assay.

On to “Glutathione S-Transferase (GST)-tagged γ-Tubulin fusion protein (from UniProt P23258 1-451)”, for which the average length of MTs after 5 min of polymerization, on γ-tubulin-functionalized gold pads against solution without functionalized microchips was 1.68 micron and the average length of MTs after 10 min of polymerization, on γ-tubulin-functionalized gold pads against solution without functionalized microchips amounted to 3.47 micron.
